Data published in paper PMC4766470.

Columns and labels:
[1] = target: neurotensin receptor 1 (wild type), expressed in Sf9 insect cells (rat) (UniProt P20789); experiment: radioligand binding; saturation binding; diluted Sf9 membranes with [3H]-labelled ligand at 30-0.02 nM, 4 °C, 2 h, 50 mM Tris-HCl pH 7.4, 1 mM EDTA, 0.1% BSA; nonspecific binding with 1000-fold excess of unlabelled ligand; filtration; apparent constants
[2] = target: NTR1-Y06, expressed in Sf9 insect cells (rat) (UniProt P20789); experiment: as above

**Q.** What does the source list for “[3,11-tyrosyl-3,5-3H(N)]-neurotensin (peptide)”?
**A.** Kd [1]: 3 nM; Kd [2]: 3 nM
